Measured values as given in IntAct's records for PubMed 25680527.

B1: Pirin (Homo sapiens), O00625 (parent)
chain: MGSSKKVTLSVLSREQSEGVGARVRRSIGRPELKNLDPFLLFDEFKGGRPGGFPDHPHRGFETVSYLLEGGSMAHEDFCGHTGKMNPGDLQWMTAGRGILHAEMPCSEEPAHGLQLWVNLRSSEKMVEPQYQELKSEEIPKPSKDGVTVAVISGEALGIKSKVYTRTPTLYLDFKLDPGAKHSQPIPKGWTSFIYTISGDVYIGPDDAQQKIEPHHTAVLGEGDSVQVENKDPKRSHFVLIAGEPLREPVIQHGPFVMNTNEEISQAILDFRNAKNGFERAKTWKSKIGN
partner: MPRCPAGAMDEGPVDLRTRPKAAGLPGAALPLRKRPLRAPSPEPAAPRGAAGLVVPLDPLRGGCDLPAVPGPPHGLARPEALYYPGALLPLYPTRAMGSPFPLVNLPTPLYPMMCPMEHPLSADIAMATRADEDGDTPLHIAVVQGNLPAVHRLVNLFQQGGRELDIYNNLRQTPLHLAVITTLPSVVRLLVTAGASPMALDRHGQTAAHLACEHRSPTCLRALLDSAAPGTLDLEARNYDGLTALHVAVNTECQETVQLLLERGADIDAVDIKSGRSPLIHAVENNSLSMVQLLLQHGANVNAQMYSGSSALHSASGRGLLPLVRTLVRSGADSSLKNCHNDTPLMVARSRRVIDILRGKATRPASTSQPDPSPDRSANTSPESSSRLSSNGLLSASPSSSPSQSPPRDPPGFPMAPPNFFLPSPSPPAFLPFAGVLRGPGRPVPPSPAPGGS

Variants of: B1
Details: with bcl3_human BCL3, P20749

effect of a mutation on the interaction | Variant
disrupting interaction | MGSSKKVTLSVLSREQSEGVGARVRRSIGRPELKNLDPFLLFDEFKGGRPGGFPDHPHRGFETVSYLLEGGSMAHEDFCGHTGKMNPGDLQWMTAGRGILHAAMPCSEEPAHGLQLWVNLRSSEKMVEPQYQELKSEEIPKPSKDGVTVAVISGEALGIKSKVYTRTPTLYLDFKLDPGAKHSQPIPKGWTSFIYTISGDVYIGPDDAQQKIEPHHTAVLGEGDSVQVENKDPKRSHFVLIAGEPLREPVIQHGPFVMNTNEEISQAILDFRNAKNGFERAKTWKSKIGN [E103A]
